Reference: US20180313836A1 (Scripps Research, published 2018)
Values belong to the binder of their own block, whether it stands above or below them.

Biological target: T1, human glycyl-tRNA synthetase, wild type (GlyRS^WT) (human, UniProt P41250 55-739)
T1 construct: also called WT GlyRS; GARS
T1 sequence: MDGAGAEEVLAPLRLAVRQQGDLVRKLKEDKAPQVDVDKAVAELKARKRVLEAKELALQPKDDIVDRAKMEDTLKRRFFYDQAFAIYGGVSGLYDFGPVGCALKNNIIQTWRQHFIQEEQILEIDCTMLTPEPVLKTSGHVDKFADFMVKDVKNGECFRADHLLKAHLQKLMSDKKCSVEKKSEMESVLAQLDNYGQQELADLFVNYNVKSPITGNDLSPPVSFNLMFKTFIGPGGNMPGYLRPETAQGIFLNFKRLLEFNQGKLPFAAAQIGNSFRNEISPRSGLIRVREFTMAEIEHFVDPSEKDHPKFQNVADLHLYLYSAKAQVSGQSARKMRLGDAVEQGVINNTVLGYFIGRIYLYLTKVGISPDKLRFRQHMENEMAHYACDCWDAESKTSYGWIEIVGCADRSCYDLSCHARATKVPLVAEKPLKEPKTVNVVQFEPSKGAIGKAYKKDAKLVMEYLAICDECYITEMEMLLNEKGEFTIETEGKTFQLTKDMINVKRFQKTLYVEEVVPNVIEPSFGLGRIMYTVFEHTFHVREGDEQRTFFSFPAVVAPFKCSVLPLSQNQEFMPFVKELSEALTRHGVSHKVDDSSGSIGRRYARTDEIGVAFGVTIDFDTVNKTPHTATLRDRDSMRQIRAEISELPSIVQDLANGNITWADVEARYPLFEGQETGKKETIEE
Assay: in vitro IP: Fc-fused Nrp1 domain constructs on Protein A resin, recombinant GlyRS added, blot GlyRS

binding result: no binding
B1: b2 (on Fc) (Fc fusion)
chain: KITDYPCSGMLGMVSGLISDSQITSSNQGDRNWMPENIRLVTSRSGWALPPAPHSYINEWLQIDLGEEKIVRGIIIQGGKHRENKVFMRKFKIGYSNNGSDWKMIMDDSKRKAKSFEGNNNYDTPELRTFPALSTRFIRIYPERATHGGLGLRMELLGCEVEAPTAGPTTPNGNLVDECDDDQANCHSGTGDDFQLTGGTTVLATEKPTVIDSTIQSEF
notes: also called Nrp1 b2 domain (res. Lys425-Phe643) fused to human IgG Fc; not shown: C-terminal human IgG Fc domain (and any V5-His tag from the vector); The CD33 signal peptide is cleaved on secretion

binding result: no binding
B2: c-Fc (drawn as the c box on Fc) (Fc fusion)
chain: TAGPTTPNGNLVDECDDDQANCHSGTGDDFQLTGGTTVLATEKPTVIDSTIQSEFPTYGFNCEFGWGSHKTFCHWEHDNHVQLKWSVLTSKTGPIQDHTGDGNFIYSQADENQKGKVARLVSPVVYSQNSAHCMTFWYHMSGSHVGTLRVKLRYQKPEEYDQLVWMAIGHQGDHWKEGRVLLHKSLKLYQVIFEGEIGKGNLGGIAVDDISINNHISQEDCAKPADLDKKNPEIKIDETGSTPGYEGEGEGD
notes: also called Nrp1 c domain (res. Thr589-Asp840) fused to human IgG Fc; not shown: C-terminal human IgG Fc domain (and any V5-His tag from the vector); The CD33 signal peptide is cleaved on secretion
